The assay deals with VISTA (analyte in the BLI assay with VSIG-3) (Homo sapiens (Human)) (UniProt Q9H7M9). The experiment in a line: BLI (Octet QK384), 100 nM Fc-tagged VSIG-3 on anti-human Fc biosensor, VISTA from 3000 nM in solution. Background: BLI is a label-free optical method that tracks binding on a fibre tip over time.

For the substance “Fc-tagged VSIG-3 (from UniProt Q5DX21 23-241) (Fc fusion)”, the Kd was determined as 5.28 µM.

What is called Kd is the equilibrium constant for the complex coming apart. A higher Kd goes with weaker binding.
